± gives the uncertainty stated by the source.

B1: Chromodomain-helicase-DNA-binding protein 4, residues 365 to 417; numbered along this chain, Q14839 (parent)
chain: YETDHQDYCEVCQQGGEIILCDTCPRAYHMVCLDPDMEKAPEGKWSCPHCEKE

This data set covers variants of B1. In words: abundance fitness (aPCA) (normalised: wild type 0, dead -1); higher = more abundant; growth selection in yeast, the domain comes from the species named. The settings on record: Homo sapiens.
E10L: the abundance fitness was determined as 0 ± 0.12.

Regarding E10F, the abundance fitness was -0.015 ± 0.14.

Consider E10I, for which the abundance fitness was 0.204 ± 0.2.

Take E10P: the abundance fitness is -0.157 ± 0.14.

For E10A, the abundance fitness is -0.155 ± 0.1.

On to E10C, for which the abundance fitness is -0.26 ± 0.17.

For the variant E10N, the abundance fitness is -0.182 ± 0.24.

Consider E10R, for which the abundance fitness is -0.022 ± 0.11.

As for E10S, the abundance fitness worked out at 0.035 ± 0.11.

For the variant E10V, the abundance fitness is -0.197 ± 0.1.

As for E10T, the abundance fitness was -0.093 ± 0.15.

Turning to E10H, the abundance fitness is -0.383 ± 0.17.

As for E10Y, the abundance fitness turned out to be 0.133 ± 0.21.

Regarding E10W, the abundance fitness is 0.015 ± 0.14.

Take E10Q: the abundance fitness is -0.358 ± 0.24.

On to E10K, for which the abundance fitness was -0.063 ± 0.15.

In the case of Q13D, the abundance fitness is 0.12 ± 0.33.

On to Q13K, for which the abundance fitness is -0.474 ± 0.18.

On to Q13S, for which the abundance fitness was found to be 0.008 ± 0.11.

Q13C: the abundance fitness is -0.045 ± 0.14.

With Q13I, the abundance fitness is -0.208 ± 0.24.

Q13A: the abundance fitness was determined as 0.206 ± 0.12.

For Q13E, the abundance fitness is -0.036 ± 0.13.

Take Q13P: the abundance fitness is -0.702 ± 0.17.

Regarding Q13Y, the abundance fitness was -0.117 ± 0.18.

As for Q13M, the abundance fitness came to 0.156 ± 0.15.

Turning to Q13T, the abundance fitness is -0.015 ± 0.14.

For Q13V, the abundance fitness was -0.018 ± 0.1.

Turning to Q13N, the abundance fitness is 0.255 ± 0.16.

As for Q13L, the abundance fitness is -0.091 ± 0.11.

For the variant Q13H, the abundance fitness was -0.135 ± 0.18.

Q13G: the abundance fitness was 0.037 ± 0.09.

As to Q13F, the abundance fitness is -0.063 ± 0.23.

For Q13W, the abundance fitness was -0.255 ± 0.12.

Y8H: the abundance fitness turned out to be 0.481 ± 0.15.

For the variant Y8Q, the abundance fitness amounted to 0.427 ± 0.12.

As to Y8R, the abundance fitness was 0.155 ± 0.098.

As for Y8N, the abundance fitness is -0.13 ± 0.28.

Take Y8C: the abundance fitness is -0.222 ± 0.18.

As to Y8M, the abundance fitness came to 0.011 ± 0.12.

In the case of Y8D, the abundance fitness is -0.269 ± 0.13.

For Y8W, the abundance fitness is -0.107 ± 0.14.

Turning to Y8G, the abundance fitness was -0.291 ± 0.08.

On to Y8I, for which the abundance fitness is -0.099 ± 0.17.

Regarding Y8L, the abundance fitness was 0.031 ± 0.1.

Consider Y8P, for which the abundance fitness amounted to 0.033 ± 0.11.

On to Y8E, for which the abundance fitness was -0.109 ± 0.11.

With Y8T, the abundance fitness worked out at 0.221 ± 0.11.

Regarding Y8A, the abundance fitness was -0.052 ± 0.09.

With Y8F, the abundance fitness was found to be 0.471 ± 0.29.

Consider Y8V, for which the abundance fitness was -0.124 ± 0.088.

For the variant T3S, the abundance fitness came out at 0.185 ± 0.11.

As to T3M, the abundance fitness was determined as 0.19 ± 0.18.

As to T3Q, the abundance fitness is -0.29 ± 0.26.

Take T3R: the abundance fitness amounted to 0.024 ± 0.1.

For T3K, the abundance fitness was 0.205 ± 0.16.

On to T3N, for which the abundance fitness is -0.106 ± 0.2.

On to T3E, for which the abundance fitness was determined as 0.074 ± 0.15.

With T3G, the abundance fitness worked out at 0.13 ± 0.1.

Turning to T3L, the abundance fitness was found to be 0.141 ± 0.1.

With T3D, the abundance fitness was -0.022 ± 0.43.

Turning to T3C, the abundance fitness amounted to 0.124 ± 0.19.

For T3V, the abundance fitness came to 0.103 ± 0.12.

Regarding T3I, the abundance fitness was 0.111 ± 0.17.

Consider T3A, for which the abundance fitness is -0.396 ± 0.14.

Regarding T3F, the abundance fitness was 0.059 ± 0.16.

In the case of T3Y, the abundance fitness was 0.034 ± 0.3.

For the variant T3H, the abundance fitness was -0.461 ± 0.29.

T3W: the abundance fitness is -0.182 ± 0.14.

For T3P, the abundance fitness is -0.225 ± 0.16.

As to Y1F, the abundance fitness was determined as 0.069 ± 0.47.

Consider Y1V, for which the abundance fitness came to 0.348 ± 0.26.

In the case of Y1M, the abundance fitness amounted to 0.64 ± 0.43.

With Y1R, the abundance fitness was 0.048 ± 0.45.

Y1K: the abundance fitness came to 0.593 ± 0.38.

Turning to Y1N, the abundance fitness was -0.028 ± 0.25.

With Y1L, the abundance fitness is -0.316 ± 0.31.

In the case of Y1W, the abundance fitness was 0.441 ± 0.17.

Take Y1A: the abundance fitness is 0.534 ± 0.26.

On to Y1C, for which the abundance fitness stood at 0.19 ± 0.22.

Consider Y1S, for which the abundance fitness came out at 0.108 ± 0.35.

Turning to Y1D, the abundance fitness is -0.863 ± 0.28.

For the variant Q6F, the abundance fitness was -0.606 ± 0.15.

As for Q6S, the abundance fitness came to 0.026 ± 0.12.

For the variant Q6H, the abundance fitness is -0.359 ± 0.31.

On to Q6Y, for which the abundance fitness was -0.243 ± 0.2.

For Q6W, the abundance fitness is -0.347 ± 0.097.

On to Q6E, for which the abundance fitness is -0.306 ± 0.36.

As for Q6C, the abundance fitness is -0.212 ± 0.12.

For the variant Q6A, the abundance fitness is -0.269 ± 0.26.

As to Q6G, the abundance fitness is -0.384 ± 0.13.

Q6L: the abundance fitness is -0.239 ± 0.096.

As for Q6P, the abundance fitness was -0.161 ± 0.2.

On to Q6V, for which the abundance fitness is -0.347 ± 0.095.

In the case of G16K, the abundance fitness is 0.026 ± 0.16.

Take G16C: the abundance fitness is -0.32 ± 0.2.

Consider G16E, for which the abundance fitness was found to be 0.12 ± 0.12.

As to G16F, the abundance fitness is -0.469 ± 0.26.

For G16D, the abundance fitness was 0.29 ± 0.17.

For G16I, the abundance fitness is -0.08 ± 0.22.

With G16A, the abundance fitness was -0.114 ± 0.1.

G16H: the abundance fitness was -0.12 ± 0.2.

On to V11S, for which the abundance fitness was -0.085 ± 0.1.

For the variant V11I, the abundance fitness was -0.064 ± 0.1.

With V11Y, the abundance fitness was 0.008 ± 0.14.

As to V11Q, the abundance fitness was -0.268 ± 0.18.

V11K: the abundance fitness came out at 0.127 ± 0.13.

Regarding V11L, the abundance fitness was determined as 0.134 ± 0.094.

Regarding V11F, the abundance fitness is 0.262 ± 0.14.

Consider V11G, for which the abundance fitness is 0.129 ± 0.084.

On to V11H, for which the abundance fitness is 0.155 ± 0.2.

In the case of V11T, the abundance fitness came to 0.195 ± 0.13.

Turning to V11P, the abundance fitness was -0.257 ± 0.15.

Take V11N: the abundance fitness worked out at 0.223 ± 0.16.

Take V11C: the abundance fitness was found to be 0.063 ± 0.12.

Turning to V11A, the abundance fitness was -0.098 ± 0.12.

V11W: the abundance fitness was -0.019 ± 0.12.

As for V11M, the abundance fitness was 0.223 ± 0.15.

Consider E2A, for which the abundance fitness is -0.143 ± 0.12.

With E2I, the abundance fitness came out at 0.176 ± 0.2.

E2T: the abundance fitness turned out to be 0.349 ± 0.23.

Take E2L: the abundance fitness stood at 0.386 ± 0.13.

Consider E2G, for which the abundance fitness worked out at 0.102 ± 0.1.

As to E2W, the abundance fitness was found to be 0.297 ± 0.2.

Turning to E2Y, the abundance fitness amounted to 0.426 ± 0.18.

Take E2D: the abundance fitness was determined as 0.033 ± 0.15.

Consider E2C, for which the abundance fitness is 0.484 ± 0.24.

E2Q: the abundance fitness is 0.654 ± 0.23.

For E2S, the abundance fitness came to 0.425 ± 0.16.

For the variant E2K, the abundance fitness came out at 0.077 ± 0.29.

Turning to E2R, the abundance fitness was found to be 0.406 ± 0.15.

On to E2M, for which the abundance fitness was 0.621 ± 0.28.

As to E2P, the abundance fitness turned out to be 0.263 ± 0.2.

Take E2H: the abundance fitness was found to be 0.347 ± 0.29.

Consider G15F, for which the abundance fitness was -0.178 ± 0.21.

With G15W, the abundance fitness is -0.216 ± 0.14.

For G15N, the abundance fitness was -0.328 ± 0.3.

Regarding G15Q, the abundance fitness is -0.046 ± 0.17.
